The sequences below were run on Escherichia coli TOP10 (assay: shrunken log2 fold change of peptide-encoding DNA abundance (4.5 h post-induction vs induction); higher = less antimicrobial activity (less host growth inhibition)). Details: time post-induction: 4.5 h; library: site-saturation at positions 5, 18, 19, 20.
In the case of RRIRLRPPRLPRPRPRPNFWPRP, the “shrunken log2 fold change” value is reported as 0.199.
For RRIRWRPPRLPRPRPRPHSMPRP, the “shrunken log2 fold change” value was -0.216.
In the case of RRIRQRPPRLPRPRPRPFNMPRP, the “shrunken log2 fold change” value is reported as 0.00759.
In the case of RRIRDRPPRLPRPRPRPNFGPRP, the “shrunken log2 fold change” value is reported as 0.0243.
In the case of RRIRVRPPRLPRPRPRPCGLPRP, the “shrunken log2 fold change” value is reported as -0.173.
RRIRCRPPRLPRPRPRPLNYPRP was tested, and the “shrunken log2 fold change” value was 0.101.
In the case of RRIRARPPRLPRPRPRPYSEPRP, the “shrunken log2 fold change” value is reported as -0.339.
RRIRARPPRLPRPRPRPQDNPRP was tested, and the “shrunken log2 fold change” value was -0.0337.
RRIRMRPPRLPRPRPRPQCDPRP was tested, and the “shrunken log2 fold change” value was -0.0599.
With RRIRVRPPRLPRPRPRPMPCPRP the “shrunken log2 fold change” value was 0.118.
With RRIRIRPPRLPRPRPRPKIHPRP the “shrunken log2 fold change” value was -0.464.
RRIRKRPPRLPRPRPRPKYHPRP was tested, and the “shrunken log2 fold change” value was -0.204.
With RRIRIRPPRLPRPRPRPKEFPRP the “shrunken log2 fold change” value was -0.361.
With RRIRDRPPRLPRPRPRPERDPRP the “shrunken log2 fold change” value was 0.312.
With RRIRIRPPRLPRPRPRPKFWPRP the “shrunken log2 fold change” value was -0.0477.
RRIRRRPPRLPRPRPRPVGNPRP was tested, and the “shrunken log2 fold change” value was -0.0457.
With RRIRTRPPRLPRPRPRPTNKPRP the “shrunken log2 fold change” value was -0.444.
For RRIRERPPRLPRPRPRPKTKPRP, the “shrunken log2 fold change” value was -0.00738.
With RRIRNRPPRLPRPRPRPDQKPRP the “shrunken log2 fold change” value was -0.000687.
RRIRRRPPRLPRPRPRPIMCPRP was tested, and the “shrunken log2 fold change” value was 0.0545.
With RRIRDRPPRLPRPRPRPDMDPRP the “shrunken log2 fold change” value was 0.2.
RRIRARPPRLPRPRPRPSSDPRP was tested, and the “shrunken log2 fold change” value was 0.301.
RRIRWRPPRLPRPRPRPLSKPRP was tested, and the “shrunken log2 fold change” value was -0.0363.
RRIRSRPPRLPRPRPRPRWFPRP was tested, and the “shrunken log2 fold change” value was 0.0783.
With RRIRSRPPRLPRPRPRPGTEPRP the “shrunken log2 fold change” value was 0.0221.
In the case of RRIRCRPPRLPRPRPRPFNKPRP, the “shrunken log2 fold change” value is reported as -0.305.
In the case of RRIRARPPRLPRPRPRPGVFPRP, the “shrunken log2 fold change” value is reported as 0.502.
With RRIRCRPPRLPRPRPRPEIEPRP the “shrunken log2 fold change” value was -0.00676.
In the case of RRIRIRPPRLPRPRPRPYNDPRP, the “shrunken log2 fold change” value is reported as -0.313.
In the case of RRIRKRPPRLPRPRPRPGFQPRP, the “shrunken log2 fold change” value is reported as 0.138.
With RRIRCRPPRLPRPRPRPNHNPRP the “shrunken log2 fold change” value was -0.975.
RRIRPRPPRLPRPRPRPTPNPRP was tested, and the “shrunken log2 fold change” value was 0.579.
RRIRCRPPRLPRPRPRPQYVPRP was tested, and the “shrunken log2 fold change” value was -0.345.
For RRIRLRPPRLPRPRPRPLEWPRP, the “shrunken log2 fold change” value was 0.0509.
For RRIRARPPRLPRPRPRPVTVPRP, the “shrunken log2 fold change” value was 2.71.
RRIRTRPPRLPRPRPRPKHKPRP was tested, and the “shrunken log2 fold change” value was -0.185.
RRIRDRPPRLPRPRPRPHNFPRP was tested, and the “shrunken log2 fold change” value was 0.0112.
For RRIRHRPPRLPRPRPRPPDHPRP, the “shrunken log2 fold change” value was 0.265.
With RRIRYRPPRLPRPRPRPYYEPRP the “shrunken log2 fold change” value was -0.28.
For RRIRTRPPRLPRPRPRPADNPRP, the “shrunken log2 fold change” value was -0.294.
In the case of RRIRTRPPRLPRPRPRPMQVPRP, the “shrunken log2 fold change” value is reported as -0.21.
For RRIRKRPPRLPRPRPRPSEKPRP, the “shrunken log2 fold change” value was 0.428.
With RRIRTRPPRLPRPRPRPILIPRP the “shrunken log2 fold change” value was -0.485.
For RRIRTRPPRLPRPRPRPCEAPRP, the “shrunken log2 fold change” value was 0.114.
RRIRTRPPRLPRPRPRPIHQPRP was tested, and the “shrunken log2 fold change” value was 0.0323.
In the case of RRIRERPPRLPRPRPRPYEDPRP, the “shrunken log2 fold change” value is reported as -0.0116.
With RRIRLRPPRLPRPRPRPNRWPRP the “shrunken log2 fold change” value was 0.254.
With RRIRGRPPRLPRPRPRPHWGPRP the “shrunken log2 fold change” value was 0.247.
In the case of RRIRARPPRLPRPRPRPPFLPRP, the “shrunken log2 fold change” value is reported as 0.529.
With RRIRTRPPRLPRPRPRPKFGPRP the “shrunken log2 fold change” value was -0.00436.
With RRIRRRPPRLPRPRPRPESVPRP the “shrunken log2 fold change” value was 0.075.
RRIRKRPPRLPRPRPRPKGGPRP was tested, and the “shrunken log2 fold change” value was 4.1.
With RRIRYRPPRLPRPRPRPTRPPRP the “shrunken log2 fold change” value was 0.472.
With RRIRPRPPRLPRPRPRPTTCPRP the “shrunken log2 fold change” value was 0.262.
RRIRIRPPRLPRPRPRPDPLPRP was tested, and the “shrunken log2 fold change” value was -0.326.
For RRIRCRPPRLPRPRPRPNDNPRP, the “shrunken log2 fold change” value was -0.692.
With RRIRQRPPRLPRPRPRPAYTPRP the “shrunken log2 fold change” value was 0.0569.
For RRIRNRPPRLPRPRPRPKDCPRP, the “shrunken log2 fold change” value was -0.0418.
For RRIRCRPPRLPRPRPRPTWEPRP, the “shrunken log2 fold change” value was -0.0631.
In the case of RRIRNRPPRLPRPRPRPRYWPRP, the “shrunken log2 fold change” value is reported as 0.0625.
For RRIRKRPPRLPRPRPRPAITPRP, the “shrunken log2 fold change” value was 0.613.
RRIRNRPPRLPRPRPRPCGVPRP was tested, and the “shrunken log2 fold change” value was -0.00664.
With RRIRHRPPRLPRPRPRPDKTPRP the “shrunken log2 fold change” value was 0.0185.
In the case of RRIRMRPPRLPRPRPRPSSGPRP, the “shrunken log2 fold change” value is reported as 0.0493.
With RRIRTRPPRLPRPRPRPYKQPRP the “shrunken log2 fold change” value was -0.0217.
For RRIRPRPPRLPRPRPRPHWLPRP, the “shrunken log2 fold change” value was -0.0232.
In the case of RRIRCRPPRLPRPRPRPMLRPRP, the “shrunken log2 fold change” value is reported as 0.184.
In the case of RRIRFRPPRLPRPRPRPYSNPRP, the “shrunken log2 fold change” value is reported as -0.603.
With RRIRCRPPRLPRPRPRPFKYPRP the “shrunken log2 fold change” value was -0.246.
With RRIRSRPPRLPRPRPRPESWPRP the “shrunken log2 fold change” value was 0.762.
RRIRRRPPRLPRPRPRPVQPPRP was tested, and the “shrunken log2 fold change” value was 0.669.
With RRIRPRPPRLPRPRPRPWSGPRP the “shrunken log2 fold change” value was 0.000793.
In the case of RRIRDRPPRLPRPRPRPNHRPRP, the “shrunken log2 fold change” value is reported as -0.346.
For RRIRHRPPRLPRPRPRPCSDPRP, the “shrunken log2 fold change” value was -0.101.
With RRIRFRPPRLPRPRPRPAYAPRP the “shrunken log2 fold change” value was 0.113.
RRIRQRPPRLPRPRPRPYVAPRP was tested, and the “shrunken log2 fold change” value was -0.713.
With RRIRTRPPRLPRPRPRPAWSPRP the “shrunken log2 fold change” value was 0.358.
In the case of RRIRCRPPRLPRPRPRPSDMPRP, the “shrunken log2 fold change” value is reported as -0.415.
In the case of RRIRYRPPRLPRPRPRPDRPPRP, the “shrunken log2 fold change” value is reported as -0.215.
RRIRVRPPRLPRPRPRPRKGPRP was tested, and the “shrunken log2 fold change” value was 0.328.
For RRIRMRPPRLPRPRPRPGLIPRP, the “shrunken log2 fold change” value was 0.133.
With RRIRIRPPRLPRPRPRPSTNPRP the “shrunken log2 fold change” value was -0.573.
RRIRHRPPRLPRPRPRPGGSPRP was tested, and the “shrunken log2 fold change” value was -0.0606.
For RRIRGRPPRLPRPRPRPHPYPRP, the “shrunken log2 fold change” value was 0.0786.
With RRIRIRPPRLPRPRPRPSHWPRP the “shrunken log2 fold change” value was -0.0355.
In the case of RRIRYRPPRLPRPRPRPHPCPRP, the “shrunken log2 fold change” value is reported as -0.125.
In the case of RRIRGRPPRLPRPRPRPQHMPRP, the “shrunken log2 fold change” value is reported as 0.231.
With RRIRVRPPRLPRPRPRPCLYPRP the “shrunken log2 fold change” value was -0.0189.
For RRIRDRPPRLPRPRPRPMCEPRP, the “shrunken log2 fold change” value was -0.0122.
RRIRLRPPRLPRPRPRPGFFPRP was tested, and the “shrunken log2 fold change” value was 0.0646.
For RRIRHRPPRLPRPRPRPPEGPRP, the “shrunken log2 fold change” value was 0.168.
RRIRYRPPRLPRPRPRPWGMPRP was tested, and the “shrunken log2 fold change” value was -0.364.
RRIRARPPRLPRPRPRPTHRPRP was tested, and the “shrunken log2 fold change” value was 0.46.
RRIRFRPPRLPRPRPRPMMYPRP was tested, and the “shrunken log2 fold change” value was -0.104.
RRIRMRPPRLPRPRPRPCVRPRP was tested, and the “shrunken log2 fold change” value was 0.0764.
RRIRVRPPRLPRPRPRPMEPPRP was tested, and the “shrunken log2 fold change” value was 0.0643.
For RRIRIRPPRLPRPRPRPITVPRP, the “shrunken log2 fold change” value was -0.426.
For RRIRTRPPRLPRPRPRPHRMPRP, the “shrunken log2 fold change” value was -0.267.
For RRIRCRPPRLPRPRPRPMEKPRP, the “shrunken log2 fold change” value was 0.0833.
With RRIRDRPPRLPRPRPRPQVTPRP the “shrunken log2 fold change” value was 0.0425.
With RRIRKRPPRLPRPRPRPIKLPRP the “shrunken log2 fold change” value was -0.243.
RRIRERPPRLPRPRPRPNDLPRP was tested, and the “shrunken log2 fold change” value was -0.016.
With RRIRWRPPRLPRPRPRPLYYPRP the “shrunken log2 fold change” value was -0.762.
For RRIRCRPPRLPRPRPRPYHHPRP, the “shrunken log2 fold change” value was -0.746.
RRIRNRPPRLPRPRPRPGPLPRP was tested, and the “shrunken log2 fold change” value was 0.0198.
With RRIRLRPPRLPRPRPRPSIYPRP the “shrunken log2 fold change” value was -0.801.
RRIRARPPRLPRPRPRPCFVPRP was tested, and the “shrunken log2 fold change” value was -0.0979.
With RRIRPRPPRLPRPRPRPGGGPRP the “shrunken log2 fold change” value was 0.728.
With RRIRRRPPRLPRPRPRPLDEPRP the “shrunken log2 fold change” value was 0.632.
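Further: peptides expressed intracellularly from a pBAD plasmid library in pooled LB shake-flask culture, induced with 0.3% L-arabinose, DNA abundance read by NGS, three biological replicates, DESeq2 with apeglm shrinkage.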
